System: murine SOD1 mRNA
Experiment: CNS knock-down of SOD1 mRNA after single ICV administration (RT-qPCR)
Format: in vivo, C57Bl/6 mice
Details: seven days
Method: VHH-siSOD 1m conjugates were assessed for their potential to mediate murine SOD1 mRNA knock-down in the brain and spinal cord following intracerebroventicular (ICV) administration in wild-type C57Bl/6 mice. Wild-type C57Bl/6 mice (4 per group) were injected a single ICV dose (right lateral ventricle, 5-10 µL at 0.75 µL/min) of 100 µg (siRNA molar equivalent) of PBS vehicle (control), unconjugated siSOD1m-5'VP or the indicated VHH-siSOD1m-5'VP conjugates. Seven days after injection, tissue samples including total brain (right hemisphere), brain regions (from the left hemisphere), spinal cord and the liver were withdrawn, snap-frozen in 10 vol. ofNucleoProtect RNA stabilization reagent (Macherey-Nagel) and stored at -20°C. Frozen tissue samples were homogenized in QUIAzol lysis reagent using a Precellys Evolution tissue homogenizer equipped with a Cryolys Evolution cooling system (Bertin Instruments). Total RNA was extracted from tissue homogenates using the rNeasy 96 QIAcube HT Kit (QIAGEN) in a QIAcube HT system. RNA samples were analyzed and dosed using a Fragment Analyzer RNA kit in a Fragment Analyzer system (Agilent). Relative RNA expression levels were quantified by RT-qPCR using the TaqMan™ Fast Universal PCR Master Mix (2X) no AmpErase™ UNG kit (Applied Biosystems) and commercially available TaqMan™ probes for murine SOD1 and RpL13 genes (Applied Biosystems). Expression data were analyzed using the ΔΔCq method normalized to the expression of the reference RpL13 gene, based on raw quantification cycle (Cq) values (Bustin et al.). The results are expressed as means ± standard error of the mean (SEM) and are presented as mRNA levels relative to the control animals injected with PBS.
Biodistribution of VHH-siRNA conjugates and CNS knock-down of the target SOD1 mRNAVHH-siSODlm conjugates were evaluated using in situ hybridization methods (ISH) on brain and spinal cord samples following single ICV administration in wild-type mice. […]

B1: C5-siSOD1m-5'VP: TfR-binding VHH-siRNA conjugate wherein VHH is C5 (conjugate)
VHH: EVQLVESGGGVVQPGGSLKLSCVASGTDFSINFIRWYRQAPGKQREFVAGFTATGNTNYADSMKGRFTISRDNTKNAVYLQIDSLKPEDTAVYYCYMLDKWGQGTQVTVSSAAAEQKLISEEDLNGAAHHHHHHGS
With B1 the “SOD1 mRNA knock-down (KD) in brain and spinal cord” value (single ICV dose 100 µg (siRNA molar equivalent)) was 80-90%, the “SOD1 mRNA KD in brain regions of the left hemisphere” value (single ICV dose 100 µg) was 60-90% and the “downregulation of SOD1 mRNA in all regions tested of the brain ipsilateral (right) hemisphere” value (single ICV dose 100 µg) was 70-90%.

— patent publication EP4480965A1, “TRANSFERRIN RECEPTOR-BINDING MOLECULES, CONJUGATES THEREOF AND THEIR USES TO PREVENT OR TREAT CNS DISEASES” (Vect-Horus, priority 2023, dated 2024)
